Here are results for twelve sequences from a protein production outcome set (Wang et al. 2014).

The nature of this data set: label from the status in PepcDB records.
For “MTATLQVTIVVGYLLVALAIGLLAYRVTERAAEDFYLASRTFGTAVLLFTVFATLLSAFTFFGGPDNAYAFGPEWILVMGLMDGLIFAILWYLIGYKQWLLGQRHGYVTLGEMFGDRFGSTGVRALVAVVSLFWLFPYVMLQQIGAGGALAALTDGVVPFWAGASLITGFMILYVVLAGMRGIAWTDTLQGAFMLCMVWAALVWVLVAVDGGVSTINAGLTESSPEFFALGSDFYTPGTMLTFAISIAFGVAMFPQVNQRFFTAASETVLKRSFALWPLLVLLLFVPAFLLGTWAQGLGLQADVGAGESILPILLDTYTPAWFAALVIAGAIAAMMSSSDSMLLSGSSYFTRDVYRPLVDDGITERQEDRLGRIGVAVFAIAALAASVWAEAEAFGAVAVGSVLVEIGDLAFGGFAQLTVPVLVALYWRGTTKQGLVAGILLPQAVYLAFNFLPATEVGSAMLFSETYLGWGISIYCLLLGLVATVVVSAATTKADSERPALFFESLRRG”, the protein production result is on record as “failed”.

Turning to “MTDAEYGLPRRSLLAGAAGAGAAFALPAGAAQAAPAASPQAGAERRHPRNWPDPEPYGAADTRADLWPREDNSFVLPLELRPRDQERGTVWMRDTYVNCFVVDGRPLYVATGTTRVPGLEAAGPWNDGIFVWLAPSLDGPWRLADTTGIRPGAERGKVWSPEFAGENRPGRTVVAPWQEYWHDEQFGKRGQAWAPELHYFRDTWYLVACMGDHSRKVGSFMLVSEGGVEGPYRLVEGNLDKPFGDSFIGGPKFIEPGAYHHIDGGLFSEGDDAWLVLHNDLYAKFRDDMEDIVTTTDLPRFRQTPYSPEPYLEGAYVFKYRGKYHLVHAAWDRTSVNADGTVRQAYDVPAAGRVQYQYDAIVAVADRFEGPYSKRYTAGVGAGHNNFFVDHRGGLWATYFLNPAAGYWSGASRVAESAVPGVVRLEWTGPAGGRLYVKRGSGGPGSGH”, the protein production entry was “failed”.

On to “MTDAPATPYAARTPVHEQHLDGFGTVRVLPLDPAADAAVVHGWVGEERAAFWGMNDLTRDQVAAVYAHMDTLDTHHAFLVVKDGEPAALLQTYDPAADRVSECYAAEPGDIGVHLLLAPAGAEGTRPGWTAALSGALMAYVLLGLDRTRIVVDPDVANEKAIARFLKQGFTAGPAVVLPEVDLPDVYLPEKKAQLAFLRREVAFGA”, for which the protein production result was “failed”.

For “MTDEIISYQKAKLAKNLAISTASKWLFVHSSTGGSATNLSIAQYATLINGIQSAIKCQVILTAGKGERERAVELAEKLTDQNVVIYDKNDGLADFTRSLACADLFIAGSTGPLHIAGGLNIPTVGFYPSRLSATPRRWRPINQVDKHLAFCPPSGKQCEMDLTLISIEQALTSVIPFIKKMWQLSLEHHHHHH”, the protein production result is reported as “not failed”.

On to “MTDFPTSLTSPGNRCEGCQQSQPLGFDFSFAYQPIVDLRDHSVFAHEALVRGVNGEGAGTVLGQVNDSNRYRFDQRCRTQAITLAAQLGMQSHLSINFMPNAVYRPELCIRSTLEAARAQRFPLDRLIFETLESQHVDNYRHLTNILREYREFGFKTAIDDFGSGYSGLNLLADFQPDLIKLDMALVRDVDQDRVRQAIIRAIVTMCAELGVTVIAEGIESAGERDFLSDCGIYLMQGYWFAKPAFKALAEVPAAAWNS”, for which the protein production result is “failed”.

In the case of “MTDKKDFAASEHNNNDNIHAEVVPRQGISIIWFVPFIALIFGLWLTAKVVSEQGTFITIEFDNGSGIIPNKTEIRYKGLVTGLVKKVVPSADLQRVIAEVEISKNFTDYLTENTRFWLVSADISLQGVSGLDTLISGSYITIMPDTNQEADSQDHFVALTEAPTLDMSTPGLHLTLHTDVLGSISENSPISFKQIPIGHVTGYHYKESSKKIGINIYIKPEFAHLVKENSLFYNTSGVQVTASLTGGVKVNTESLASIMAGGISVDNLSYQTELAPAKNGQTFPLHADFQSAEMGHEVELTLEWNSGIDHNAAILFQGLTIGVIESFSKIDPVSRKITATAKVNPRVVPYLTDQSQFYIVAPQISLAGLTNAKTLLTGNYLSIRPSLAGNPSNKFNVFSSKPPYKYTEPGLHLMLTSSDRSSLQIGSNVYYKQQVVGNIQAIETTAPERHLIHIHVQPKFSHYVNHSSRFYNNSGVKISANLLGVDIQAQSLQSILTGGIAFTSQNSTQESQKKLVKNGDSFSLYANNKLAEQNISFTLNYMASEHISSDTRLLYRGIEIGAIHQTKIQGNKQQLQLGLLPEYEHILKADTQFYIVKPNLSLSGASDTDALFGGTYITFNLGQGKAKNQFTLFSQPPVKLASSPGLQLSLSTDHANVATPGSAISYRGITIGQVDNVSLNKIDDEIKVNITIDEEHRGLLKSTSRFYNAGGMTISGGLSDFVVKTESIDAILRGGISFYNPEVLLPTSLITNTQVEELSNFTLFKHEEHAKDAGQTISIHFNDISGLKVNTKVIYQEQTLGTIERLIFTADKVGVTALVLLNDSGSQFARKGTKFWKIEPQIGLVGSKNVAALLDGAFIGLLPSHNVEAKLKNEFEALELAPTVEQLSYGLNIKLTTARLGSVRVGNPVLYRQIKVGKVIGIDLSATADQVNIFINIAKRYAPLVNGNSQFWNTSGINIEASIFSGINIDSESIETLIAGGIAFATPDIDENNDKEQNDETKSLPASFILHQDVDEDWLEWQPKIAINNQTTSAE”, the protein production entry is “failed”.

On to “MTDKTPWSLRSVGNPSPIEIAMMLLSLLSVIIVLVMTFGRLDKETYRLLFFIDTTICMIFMVNFFAGLFRARDKLFYLRHHWIDFIASIPAIEALRIARVFQILRVIRLIRMSRSFLIPLIKQRKQATLASLLVAMVTILTFASIIILIIESGTEGANIQTAEQAIWWALVTISTVGYGDFYPVSTAGHIVGGIVIVSGVSFFGVISGYMASVFVAPDESERQERQDAHKAEIKSELELALARMEENQRQMELNQAQMLTKIAELKQALEDKKG”, for which the protein production entry was “failed”.

With “MTDNETPAEDQVGDRVAGLLLAAGGGRRLGGRPKALLEHRGHPLVEHAVEVLRTAGCARVHVVLGARAADVRARAALDGCTLVDNPDWEQGMGSSLRAGLGSLAATGARAALVCLVDQPGIGAAATARVRARFRDETSLASAAYAGVRGHPVLLGAAHWAGVAATASGDRGARAYLREHEAEIALVECGDVARPYDIDTEADLVHLELEHHHHHH”, the protein production entry was “not failed”.

On to “MTDNTRLRIAMQKSGRLSDDSRELLARCGIKINLHTQRLIAMAENMPIDILRVRDDDIPGLVMDGVVDLGIIGENVLEEELLNRRAQGEDPRYFTLRRLDFGGCRLSLATPVDEAWDGPLSLNGKRIATSYPHLLKRYLDQKGISFKSCLLNGSVEVAPRAGLADAICDLVSTGATLEANGLREVEVIYRSKACLIQRDGEMEESKQQLIDKLLTRIQGVIQARESKYIMMHAPTERLDEVIALLPGAERPTILPLAGDQQRVAMHMVSSETLFWETMEKLKALGASSILVLPIEKMME”, for which the protein production entry was “not failed”.

Turning to “MTDPVFFAPSRRYTAAEVANLTGSVLVDSGQSDVSIEALAPASEGGANALVFVDGRRNSALMPSLRAAAVLCPAEFANKAPSSVAVLIHPRPQQAFALVGRLLFPTAATPGPMTSETGVSAHAHIDPTAHVEAGAIIEAGVVIGPGVSIGSGTVIAPNAVIGQSCQIGRDGYVGPGASIQYALIGNRVIIHGGARIGQDGFGFVGGAKGPERVPQIGRVVIQDDVEIGSNSTVDRGAMSDTIIGQGTKIDNLVQIAHNVRIGRNCIVAGLSGISGSVVVGDNVTMGGGVGLADHLTIGSGAKLAARSGFMSNVPAGEIWGGYPAQPMAEAMREIAMLRTMARARKQGKDNG”, the protein production entry is listed as “failed”.

Take “MTDRQLIVLAALNIMVAVGAGAFGAHGLRRVVDPTLLAIWHTGVLYHLIHALGLFVVALLGARFGSPLLSMAGLVMFIGILLFCGSLYVLVLTGTRWLGAVTPLGGVAFLAAWAMVAWAAWRAPA”: the protein production result is recorded as “failed”.

Take “MTDRSEDADGEPAPEDAAGLDDDALDHEFSEGAGFDDPYAGFDLDPPELDVDPDTVDPVDSRVVADTLDERTLDNDAVDADELIDVGLSYMGINRNEQAVDTFERAAQYTDDDNREQEAWVNKGIAHGELEEWDAAVGAHREALFVADDGDFEAAAHTNLAYALWEFGEDEQAYEHAEEAVRVDKRLPQAWYNLGFIENERDRPEQALDALDNAIRLGFQQADVYEEKTRALEALGRDEEAAKVAEQADEIRSQQERELVDER”: the protein production entry is “failed”.
